# Experimental data taken from patent US20130252251A1 (CENTRE NATIONAL DE LA RECHERCHE SCIENTIFIQUE, published 2013).
# T1: PiT2 membrane receptor (human, UniProt Q08357 1-652)
# T1 construct: whole, on cells; Endogenous receptor on primary blood or sputum neutrophils; also called FiT2
# T1 sequence: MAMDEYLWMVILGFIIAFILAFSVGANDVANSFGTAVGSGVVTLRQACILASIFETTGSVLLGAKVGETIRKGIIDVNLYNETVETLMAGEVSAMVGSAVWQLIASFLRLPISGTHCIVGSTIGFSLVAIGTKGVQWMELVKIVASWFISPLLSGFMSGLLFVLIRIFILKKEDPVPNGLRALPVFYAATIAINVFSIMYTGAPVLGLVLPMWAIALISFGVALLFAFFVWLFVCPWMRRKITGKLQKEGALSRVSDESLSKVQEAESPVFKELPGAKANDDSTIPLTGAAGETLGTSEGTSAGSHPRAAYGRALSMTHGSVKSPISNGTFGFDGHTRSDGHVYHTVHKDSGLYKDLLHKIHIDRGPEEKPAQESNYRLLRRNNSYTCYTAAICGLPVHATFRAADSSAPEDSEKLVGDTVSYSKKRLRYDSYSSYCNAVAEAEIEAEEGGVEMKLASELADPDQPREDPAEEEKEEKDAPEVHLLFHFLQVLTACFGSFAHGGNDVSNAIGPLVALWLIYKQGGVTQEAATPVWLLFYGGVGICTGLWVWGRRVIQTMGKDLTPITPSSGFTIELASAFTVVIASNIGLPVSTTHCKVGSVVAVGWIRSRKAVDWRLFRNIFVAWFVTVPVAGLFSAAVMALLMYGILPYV
# T2: ASCT2 membrane receptor (human, UniProt Q15758 1-541)
# T2 construct: whole, on cells; Endogenous receptor on primary blood or sputum neutrophils; also called ASTC2
# T2 sequence: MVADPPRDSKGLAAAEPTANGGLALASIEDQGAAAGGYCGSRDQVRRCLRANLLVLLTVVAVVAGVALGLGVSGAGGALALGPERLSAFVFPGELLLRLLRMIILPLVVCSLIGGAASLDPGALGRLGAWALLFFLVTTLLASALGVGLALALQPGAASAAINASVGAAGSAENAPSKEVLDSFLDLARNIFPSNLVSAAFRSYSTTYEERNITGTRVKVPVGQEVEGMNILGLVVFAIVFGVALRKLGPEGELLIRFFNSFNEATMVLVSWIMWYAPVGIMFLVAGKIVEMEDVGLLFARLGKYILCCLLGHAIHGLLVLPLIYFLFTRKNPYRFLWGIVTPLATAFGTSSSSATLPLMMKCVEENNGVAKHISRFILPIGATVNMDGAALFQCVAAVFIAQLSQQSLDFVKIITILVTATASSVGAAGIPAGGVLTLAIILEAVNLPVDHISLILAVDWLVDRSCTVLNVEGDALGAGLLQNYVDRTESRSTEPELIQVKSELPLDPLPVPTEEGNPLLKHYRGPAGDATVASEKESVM
# T3: GLUT1 membrane receptor (human, UniProt P11166 1-492)
# T3 construct: whole, on cells; Endogenous receptor on primary blood or sputum neutrophils
# T3 sequence: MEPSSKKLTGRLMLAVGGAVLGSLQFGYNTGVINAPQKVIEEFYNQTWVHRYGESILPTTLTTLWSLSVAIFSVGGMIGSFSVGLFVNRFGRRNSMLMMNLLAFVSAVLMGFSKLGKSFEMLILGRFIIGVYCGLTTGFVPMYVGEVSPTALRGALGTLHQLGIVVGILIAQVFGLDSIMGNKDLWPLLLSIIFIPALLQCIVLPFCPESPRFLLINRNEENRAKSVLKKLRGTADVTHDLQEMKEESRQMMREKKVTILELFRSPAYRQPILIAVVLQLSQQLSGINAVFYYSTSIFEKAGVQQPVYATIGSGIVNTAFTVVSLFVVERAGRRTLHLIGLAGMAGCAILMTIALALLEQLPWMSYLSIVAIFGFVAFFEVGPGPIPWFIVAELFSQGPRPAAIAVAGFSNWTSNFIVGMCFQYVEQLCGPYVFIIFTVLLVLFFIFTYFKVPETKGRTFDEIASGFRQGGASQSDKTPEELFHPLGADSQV
# T4: PiT1 membrane receptor (human, UniProt Q8WUM9 1-679)
# T4 construct: whole, on cells; Endogenous receptor on primary blood or sputum neutrophils
# T4 sequence: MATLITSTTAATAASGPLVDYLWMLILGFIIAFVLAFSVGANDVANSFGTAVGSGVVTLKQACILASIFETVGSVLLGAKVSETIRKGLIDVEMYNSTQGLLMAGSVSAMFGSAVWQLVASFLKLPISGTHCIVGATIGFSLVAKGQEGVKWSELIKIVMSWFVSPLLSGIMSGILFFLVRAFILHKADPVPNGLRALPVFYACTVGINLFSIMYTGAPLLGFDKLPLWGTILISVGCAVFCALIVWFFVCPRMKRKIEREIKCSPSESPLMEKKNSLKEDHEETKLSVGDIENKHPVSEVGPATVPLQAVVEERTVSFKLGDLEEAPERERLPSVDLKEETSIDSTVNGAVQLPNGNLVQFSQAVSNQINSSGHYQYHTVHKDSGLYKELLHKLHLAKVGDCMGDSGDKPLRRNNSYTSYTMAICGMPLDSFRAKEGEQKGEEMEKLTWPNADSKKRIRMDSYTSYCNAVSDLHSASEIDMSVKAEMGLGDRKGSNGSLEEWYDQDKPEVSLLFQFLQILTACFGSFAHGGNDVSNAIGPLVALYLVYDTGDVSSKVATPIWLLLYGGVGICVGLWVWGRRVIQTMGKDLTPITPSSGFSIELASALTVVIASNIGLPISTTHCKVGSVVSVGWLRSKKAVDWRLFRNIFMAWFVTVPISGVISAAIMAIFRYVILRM
# Experiments:
# [1] = biological target: membrane receptor interacting with BLV; assay: flow cytometry, tagged RBD on blood neutrophils of rheumatoid arthritis patients (N=9)
# [2] = biological target: membrane receptor interacting with BLV; assay: flow cytometry, tagged RBD on sputum neutrophils of one CF patient
# [3] = biological target: membrane receptor interacting with BLV; assay: flow cytometry, tagged RBD on blood neutrophils of one CF patient
# [4] = biological target: membrane receptor interacting with BLV; assay: flow cytometry, tagged RBD on blood neutrophils of healthy control donors (N=8)
# [5] = biological target: PAR (PeRV A Receptor) receptors: human Riboflavin Transporter 1 (hRFT1 or PAR2) and hRFT3 (or PAR1); assay: flow cytometry, tagged RBD on blood neutrophils of rheumatoid arthritis patients (N=9)
# [6] = biological target: PAR (PeRV A Receptor) receptors: human Riboflavin Transporter 1 (hRFT1 or PAR2) and hRFT3 (or PAR1); assay: flow cytometry, tagged RBD on sputum neutrophils of one CF patient
# [7] = biological target: PAR (PeRV A Receptor) receptors: human Riboflavin Transporter 1 (hRFT1 or PAR2) and hRFT3 (or PAR1); assay: flow cytometry, tagged RBD on blood neutrophils of one CF patient
# [8] = biological target: PAR (PeRV A Receptor) receptors: human Riboflavin Transporter 1 (hRFT1 or PAR2) and hRFT3 (or PAR1); assay: flow cytometry, tagged RBD on blood neutrophils of healthy control donors (N=8)
# [9] = biological target: T1, PiT2 membrane receptor; assay: as above
# [10] = biological target: T1, PiT2 membrane receptor; assay: flow cytometry, tagged RBD on blood neutrophils of rheumatoid arthritis patients (N=9)
# [11] = biological target: T2, ASCT2 membrane receptor; assay: flow cytometry, tagged RBD on blood neutrophils of healthy control donors (N=8)
# [12] = biological target: T2, ASCT2 membrane receptor; assay: flow cytometry, tagged RBD on blood neutrophils of rheumatoid arthritis patients (N=9)
# [13] = biological target: T3, GLUT1 membrane receptor; assay: flow cytometry, tagged RBD on blood neutrophils of healthy control donors (N=8)
# [14] = biological target: T3, GLUT1 membrane receptor; assay: flow cytometry, tagged RBD on blood neutrophils of rheumatoid arthritis patients (N=9)
# [15] = biological target: T4, PiT1 membrane receptor; assay: flow cytometry, tagged RBD on blood neutrophils of healthy control donors (N=8)
# [16] = biological target: T4, PiT1 membrane receptor; assay: flow cytometry, tagged RBD on blood neutrophils of rheumatoid arthritis patients (N=9)
molecule,measurement,setting,value
Bovine Leukaemia Virus receptor-binding domain (BLV RBD) (from UniProt P25507 34-215) (ligand),deltaMedian of fluorescence (median),[1],2750
same,deltaGeomean of fluorescence,[2],140
same,deltaGeomean of fluorescence,[3],0
same,deltaMedian of fluorescence (median),[4],3550
Porcine Endogeneous Retrovirus-A receptor-binding domain (PERVA RBD) (ligand),deltaMedian of fluorescence (median),[5],2320
same,deltaGeomean of fluorescence,[6],284
same,deltaGeomean of fluorescence,[7],4160
same,deltaMedian of fluorescence (median),[8],3740
"Amphotropic Murine Leukemia Retrovirus receptor-binding domain (AMLV RBD) (ligand, not shown: tag: EGFP, mouse-IgG Fc or rabbit-IgG Fc) AESPHQVFNVTWRVTNLMTGRTANATSLLGTVQDAFPKLYFDLCDLVGEEWDPSDQEPYVGYGCKYPAGRQRTRTFDFYVCPGHTVKSGCGGPGEGYCGKWGCETTGQAYWKPTSSWDLISLKRGNTPWDTGCSKVACGPCYDLSKVSNSFQGATRGGRCNPLVLEFTDAGKKANWDGPKSWGLRLYRTGTDPITMFSLTRQVLNVGPRVPIGPNPVLPDQRLPSSPIEIVPAPQPPSPLNTSYPPSTTSTPSTSPTSPSVPQPPPGTGDRLLALVKGAYQALNLTNPDKTQECWLC",deltaMedian of fluorescence (median),[9],3930
same,deltaMedian of fluorescence (median),[10],2860
"Feline endogenous retrovirus receptor-binding domain (RD114 RBD) (ligand, not shown: tag: EGFP, mouse-IgG Fc or rabbit-IgG Fc) GFDDPRKAIALVQKQHGKPCECSGGQVSEAPPNSIQQVTCPGKTAYLMTNQKWKCRVTPKISPSGGELQNCPCNTFQDSMHSSCYTEYRQCRRINKTYYTATLLKIRSGSLNEVQILQNPNQLLQSPCRGSINQPVCWSATAPIHISDGGGPLDTKRVWTVQKRLEQIHKAMTPELQYHPLALPKVRDDLSLDARTFDILNTTFRLLQMSNFSLAQDCWLC",deltaMedian of fluorescence (median),[11],1630
same,deltaMedian of fluorescence (median),[12],1650
"Human T Leukaemia Virus-2 receptor-binding domain (HTLV-2 RBD) (ligand, not shown: tag: EGFP, mouse-IgG Fc or rabbit-IgG Fc) QQSRCTLTVGISSYHSSPCSPTQPVCTWNLDLNSLTTDQRLHPPCPNLITYSGFHKTYSLYLFPHWIKKPNRQGLGYYSPSYNDPCSLQCPYLGCQSWTCPYTGPVSSPSWKFHSDVNFTQEVSQVSLRLHFSKCGSSMTLLVDAPGYDPLWFITSEPTQPPPTSPPLVHDSDLEHVLTPSTSWTTKILKFIQLTLQSTNYSCMVC",deltaMedian of fluorescence (median),[13],4670
same,deltaMedian of fluorescence (median),[14],3180
"Koala endogeneous Retrovirus receptor-binding domain (KoRV RBD) (ligand, not shown: tag: EGFP, mouse-IgG Fc or rabbit-IgG Fc) NQQHNNPHQPMTLTWQVLSQTGSVVWEKKAVEPPWTWWPSLEPDVCALVAGLESWDIPELTASASQQARPPDSNYEHAYNQITWGTLGCSYPRARTRIARSQFYVCPRDGRSLSEARRCGGLESLYCKEWGCETAGTAYWQPRSSWDLITVGQGHPTGTCERTGWCNPLKIEFTEPGKRFRNWLQGRTWGLRFYVTGHPGVQLTIRLVITSPPPVVVGPDPVLAEQGPPRKIPFLPRVPVPTLSPPASPIPTVQASPPAPSTPSPTTGDRLFGLVQGAFLALNATNPEATESCWLC",deltaMedian of fluorescence (median),[15],2640
same,deltaMedian of fluorescence (median),[16],1880
